Where “and” joins values, the source holds several entries; their conditions need not be identical. Equal entries are not always repeated.
Experiments:
[1] = biological target: T1, cleaved high molecular weight kininogen (HMWK) (human, UniProt P01042 19-380; P01042 390-644); experiment: sandwich ELISA with coated Fab; value = C, midpoint of the printed 4-P fit; 2-chain HMWK spiked into assay buffer, analysed in 2.5% plasma
T1 construct: also called cleaved HMWK; 2-chain HMWK
T1 sequence 1: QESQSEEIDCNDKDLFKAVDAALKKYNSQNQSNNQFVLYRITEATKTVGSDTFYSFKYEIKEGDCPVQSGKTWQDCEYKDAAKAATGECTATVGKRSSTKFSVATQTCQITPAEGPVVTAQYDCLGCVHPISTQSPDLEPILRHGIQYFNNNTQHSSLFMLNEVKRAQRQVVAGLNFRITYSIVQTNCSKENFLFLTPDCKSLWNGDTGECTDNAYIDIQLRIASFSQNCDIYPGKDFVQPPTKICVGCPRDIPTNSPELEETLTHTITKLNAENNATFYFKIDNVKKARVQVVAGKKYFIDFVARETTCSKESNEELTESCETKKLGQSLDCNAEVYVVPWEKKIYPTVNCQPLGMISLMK
T1 sequence 2: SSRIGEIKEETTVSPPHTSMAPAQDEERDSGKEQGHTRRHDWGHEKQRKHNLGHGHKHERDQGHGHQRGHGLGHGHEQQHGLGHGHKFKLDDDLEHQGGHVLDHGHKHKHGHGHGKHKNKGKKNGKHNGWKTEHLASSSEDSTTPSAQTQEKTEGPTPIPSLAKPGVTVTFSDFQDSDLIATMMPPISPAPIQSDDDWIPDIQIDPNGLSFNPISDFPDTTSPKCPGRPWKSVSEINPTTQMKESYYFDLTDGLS
Description: (§1) Purified cleaved HMWK was spiked into SBT assay buffer (open circles), SBT assay buffer and analyzed in the presence of 10% plasma (squares), or HMWK-deficient plasma and analyzed in the presence of 10% plasma (triangles). Purified cleaved HMWK was also spiked into assay buffer and analyzed in the presence of 2.5% plasma (diamonds) or HMWK deficient plasma and analyzed in the presence of 2.5% plasma (closed circles). The y-axis presents the ELISA signal in absorbance units, and the x-axis presents the concentration of kininogen in μg/mL.
(§2) The following day, the plate was washed and then blocked with 2% BSA (Protease/IgG free) in PBS buffer. Following a wash, samples containing cleaved HMWK in 0.1% BSA buffer in PBS with 0.05% Tween-20 (2-Chain HMWK assay buffer). Purified protein standards (e.g., 2-chain HMWK, intact HMWK or LMWK) were spiked into HMWK-deficient plasma and diluted 1:320 in 2-chain HMWK assay buffer. Following plate washing with PBST, a mixture of 2 mouse monoclonal antibodies (11H05 and 13B12) at 1 μg/mL in 2-chain HMWK assay buffer were added for 1 hour at room temperature. […] Signal was detected by the addition of 3,3′,5,5′-tetramethylbenzidine (TMB), an HRP substrate. […] Hydrolysis of a TMB substrate was detected using a microplate reader at 450 nm-630 nm (FIG. 3). […] Using these immunoassay conditions, specifically binding to cleaved HMWK was detected.

[2] = biological target: T1, cleaved high molecular weight kininogen …; experiment: optimized sandwich ELISA: M004-B04 capture, detection 11H05 + 13B12; value = C, midpoint of the printed 4-P fit; in-well concentration
Procedure: (§3) The following day, the plate was washed and then blocked with 2% BSA (Protease/IgG free) in PBS buffer. Following a wash, samples containing cleaved HMWK in 0.1% BSA buffer in PBS with 0.05% Tween-20 (2-Chain HMWK assay buffer). Purified protein standards (e.g., 2-chain HMWK, intact HMWK or LMWK) were spiked into HMWK-deficient plasma and diluted 1:320 in 2-chain HMWK assay buffer. Following plate washing with PBST, a mixture of 2 mouse monoclonal antibodies (11H05 and 13B12) at 1 μg/mL in 2-chain HMWK assay buffer were added for 1 hour at room temperature. Unbound detection antibodies were washed and a 1:2000 dilution of goat anti-mouse secondary antibody conjugated to horseradish peroxidase (HRP) was added. The assay containing the secondary antibody was incubated for 1 hour at room temperature, and unbound secondary antibody was removed by washing with 2-chain HMWK assay buffer. Signal was detected by the addition of 3,3′,5,5′-tetramethylbenzidine (TMB), an HRP substrate. The reaction was stopped with phosphoric acid. Hydrolysis of a TMB substrate was detected using a microplate reader at 450 nm-630 nm (FIG. 3). […] Using these immunoassay conditions, specifically binding to cleaved HMWK was detected.

[3] = biological target: T1, cleaved high molecular weight kininogen …; experiment: ELISA on coated M004-B04, 2-chain HMWK (in deficient plasma, diluted) titrated, no peptide (control); value = C, midpoint of the printed 4-P fit
Procedure: as §3, with “Following” for “The following day, the plate was washed and then blocked with 2% BSA (Protease/IgG free) in PBS buffer. Following a wash, samples containing cleaved HMWK in 0.1% BSA buffer in PBS with 0.05% Tween-20 (2-Chain HMWK assay buffer). Purified protein standards (e.g., 2-chain HMWK, intact HMWK or LMWK) were spiked into HMWK-deficient plasma and diluted 1:320 in 2-chain HMWK assay buffer. Following”
To perform the assay, the kininogen peptides were diluted to 250 μg/mL and allowed to preincubate on assay plate. Then, purified 2-chain HMWK in deficient human plasma was diluted 160 and then added to plate.

[4] = biological target: T1, cleaved high molecular weight kininogen …; experiment: sandwich ELISA with coated Fab; value = C, midpoint of the printed 4-P fit; 2-chain HMWK spiked into HMWK-deficient plasma, analysed in 10% plasma
Description: as §1, §2

[5] = biological target: T1, cleaved high molecular weight kininogen …; experiment: sandwich ELISA: Fab coated on 96-well plate, kininogen titrated, detection 11H05 + 13B12 and goat anti-mouse-HRP; value = C, midpoint of the printed 4-P fit; 2-chain HMWK spiked into HMWK-deficient plasma
Description: Purified cleaved HMWK was spiked into SBT assay buffer (circles) or HMWK-deficient plasma (squares). Purified intact HMWK was spiked into SBT assay buffer (triangles). Purified LMWK was spiked into SBT assay buffer (diamonds). The y-axis presents the ELISA signal in absorbance units, and the x-axis presents the concentration of kininogen in μg/mL.
as §3, with “The assay containing the secondary antibody was incubated for 1 hour at room temperature, and unbound secondary antibody was removed by washing with 2-chain HMWK assay buffer.” left out, “The reaction was stopped with phosphoric acid.” left out

B1: 559B-M0004-B04 (Fab, V domains shown)
VH: EVQLLESGGGLVQPGGSLRLSCAASGFTFSFYVMVWVRQAPGKGLEWVSGISPSGGNTAYADSVKGRFTISRDNSKNTLYLQMNSLRAEDTAVYYCARKLFYYDDTKGYFDFWGQGTLVTVSS
VL: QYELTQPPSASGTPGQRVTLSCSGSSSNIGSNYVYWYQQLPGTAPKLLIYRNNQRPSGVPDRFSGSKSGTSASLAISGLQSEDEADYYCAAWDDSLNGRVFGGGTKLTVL
notes: also called M004-B04
Question: Which results are given for B1?
Answer: EC50 [1]: 204 µg/mL; EC50 [2]: 0.00902 µg/mL and 0.0207 µg/mL and 0.0116 µg/mL; EC50 [3]: 0.0123 µg/mL; EC50 [4]: 165 µg/mL; EC50 [5]: 247 µg/mL
